In patent US8252338B2, “Synthetic LDL as targeted drug delivery vehicle” (The Regents of the University of California, priority 2005, dated 2012):
One block for each compound: values may come before it.

How the values were obtained:
HeLa cells = assay: Cell killing by MTT assay, HeLa cells; format: cell-based, human; conditions: concentrations up to 50 μM
Description: (§1) sLDL-PO was added to HeLa cells as shown in FIG. 16 and to SF-767 glioblastoma multiforme tumor cells (shown in FIG. 17) at concentrations between 0.05 and 50 μM and cell killing was determined by the MTT assay.

SF-767 cells = assay: Cell killing by MTT assay, SF-767 cells; format: cell-based, human; conditions: concentrations up to 10 μM
Description: as §1
Cells were grown as in Example 3.

[1] = Phospholipid binding of peptides, PC-cholate micelles, cholate dialysis; format: physicochemical; conditions: overnight incubation, dialysis (cutoff 10,000 MW)
Description: The ability of the peptides to bind phospholipids was tested first. Phospholipid binding was used as a rapid screen for a peptide's ability to bind to the surface of a synthetic LDL-like nanoparticle. To make phospholipid complexes with peptides, egg yolk phosphatidylcholine (PC) and the cholate dialysis method were used similarly to what was previously employed to make synthetic nascent HDL particles (Segrest, J. P. et al., J. Lipid Res 33:141-166 (1992)). The PC-cholate micelles were incubated with the peptide overnight and then extensively dialyzed (dialysis membrane cutoff, 10,000 MW) to remove cholate and unbound peptide. The percent bound peptide, i.e., peptide that remains associated with the lipid micelles, was determined for each peptide and was 8%, 15% and 33%, for B-peptide, 11-A chimera and 18-A chimera, respectively. The B-peptide had poor lipid binding ability while the 11-mer peptide has low lipid binding compared to the 18-A chimera.

[2] = Peptide association with lipid microemulsion after dialysis; format: physicochemical; conditions: 1.27 mg/ml peptide; PL:TO:CO 3:2:1; after extensive dialysis against Tris-saline buffer
Description: The 18-A chimera was utilized for making core-containing synthetic LDL. The procedure reported by Baille et al. (Baillie, G. et al., J Lipid Res 43:69-73 (2002)) was used with modifications. Microemulsions were formed using egg yolk phospholipid (PL), triolein (TO) and cholesteryl olein (CO) (mole ratio of 3:2:1) and 20 μM butylhydroxytoluene (BHT); the microemulsions were extruded through an Avanti miniextruder first using 100 nm polycarbonate filters followed by 30 nm polycarbonate filters. The lipid emulsions were incubated with 1.27 mg/ml 18-A chimera and lipid association determined after extensive dialysis against Tris-saline buffer to remove uncomplexed peptide. Approximately 85% of the added synthetic peptide remained associated with the lipid emulsions.
Characterization: Composition of particles was determined using the Markwell modification of the Lowry protein assay and enzymatic colorimetric assays for PL, TO and CO (Wako Kits). Size was determined by column chromatography using a Superose 6 fast protein liquid chromatography (FPLC) column. Samples were run at a flow rate of 0.5 mL/min and absorbance read at 280 nm. Referring now to FIG. 4, the composition of the synthetic LDL was characterized as 32% peptide, 68% lipid. 82%±9% of peptide (n=11) remained bound after dialysis. […]

[3] = Density distribution of lipidated 18-A chimera by sequential ultracentrifugation; format: physicochemical
Description: Studies were carried out to determine (1) whether the synthetic LDL represent a single population of particles and (2) whether the LDLR binding domain remains accessible after the peptide is associated with the lipid. To determine what types of synthetic LDL particles were generated, the lipidated 18-A chimera was subjected to sequential ultracentrifugation at density (d) 1.063 g/ml to isolate particles equivalent to, or less dense than, native LDL. Subsequently the solution was adjusted to d 1.21 g/ml to isolate particles in the d 1.063-1.21 g/ml range and those in the d>1.21 g/ml range. The latter particles are considered lipid-poor complexes while the d 1.063-1.21 particles are in the size and density range of high density lipoproteins (HDL). […] This was an unexpected finding but is very encouraging since smaller sized complexes will be better able to diffuse through the tumor mass than larger particles. The formation of small high density complexes is reproducible since it occurred with two separate batches of synthetic 18-A chimera complexes.
To determine the distribution of lipid complexes in various density classes, sequential ultracentrifugation techniques were employed (Lindgren, F. T. et al., In Blood Lipids and Lipoproteins: Quantification, Composition and Metabolism (Nelson, G. J., ed.) pp. 181-274, John Wiley, New York (1972)); this preparative procedure is routinely used in our laboratory and is the classical method for isolation of LDL and other lipoproteins. The first centrifugation was performed at d 1.006 g/ml to isolate large lipid complexes with little peptide; the second spin was done at 1.006-1.063 g/ml to isolate particles in the LDL.size and density range; the third spin at d 1.063-1.21 g/ml isolates particles in the HDL size and density range. The d>1.21 g/ml fraction was isolated to assess how much of the peptide is in the lipid-poor form. All ultracentrifugal isolations use the Beckman TL100 ultracentrifuge for rapid isolations (all fractions can be obtained within 24 hr). […]

initial PO added remained bound to the microemulsion after processing (PC:TO:CO:PO 3:2:1:0.5, centrifuged and dialyzed): 48±3%
increase in incorporation into microemulsion as compared to paclitaxel (equimolar amounts added to initial lipid mixture (FIG. 14A)): 4-5 fold
initial PO concentration at which incorporation appears to saturate (varying PO in the initial lipid mixture (FIG. 13)): around 0.33 mg/mL
Compound: CCCCCCCC/C=C\CCCCCCCC(=O)O[C@@H](C(=O)O[C@H]1C[C@@]2(O)[C@@H](OC(=O)c3ccccc3)[C@@H]3[C@]4(OC(C)=O)CO[C@@H]4C[C@H](O)[C@@]3(C)C(=O)[C@H](OC(C)=O)C(=C1C)C2(C)C)[C@@H](NC(=O)c1ccccc1)c1ccccc1 [Paclitaxel oleate]
HeLa cell killing (HeLa cells): ineffective
SF-767 cell killing (SF-767 cells): ineffective

Compound: DWLKAFYDKVAEKLKEAFRLTRKRGLKLA [18-A chimera]
percent bound peptide (peptide that remains associated with the lipid micelles) [1]: 33%
added synthetic peptide remaining associated with the lipid emulsions [2]: Approximately 85%
density distribution (percent) of 18-A chimera ([3]; d 1.063-1.21 g/ml (size and density range of HDL, small lipid particles)): 58%
density distribution (percent) of 18-A chimera ([3]; d < 1.063 g/ml): 13%
density distribution (percent) of 18-A chimera ([3]; d > 1.21 g/ml (lipid-poor)): 29%

Compound: PALEDLRQGLLPRLTRKRGLKL [11-A chimera]
percent bound peptide (peptide that remains associated with the lipid micelles) [1]: 15%

Compound: YKLEGTTRLTRKRGLKLATALS [B-peptide, reference compound]
percent bound peptide (peptide that remains associated with the lipid micelles) [1]: 8%
